Numbering of substitutions follows the chain as printed. Blank lines part the entries; values can stand above or below the binder they belong to.
What was measured:
[1] = molecular target: T1, GDF15-HIS (ACROBiosystems, CAT #: GD5-H5149) (human, UniProt Q99988 197-308); test: cell-based or functional assay
T1 sequence (looked up): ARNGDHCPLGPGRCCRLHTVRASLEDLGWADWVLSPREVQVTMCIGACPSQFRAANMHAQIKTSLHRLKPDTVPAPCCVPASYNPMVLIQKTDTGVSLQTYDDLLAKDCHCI

cynoGDF15-mFC = molecular target: T2, cynoGDF15-mFC (monkey (cyno); mouse, UniProt G7PWZ3 197-308); test: ELISA, cynoGDF15-mFC coated
T2 construct: also called monkey GDF15 (cynoGDF15)
T2 sequence (looked up): T1 sequence (looked up) with H6R, R21H, A54E, T63M, S64N, I112V
Method: The experiment was performed as detailed in Example 2, except that the coating protein was cynoGDF15-mFC (GDF15: Genbank accession number EHH29815.1; mFC: Genbank accession number AAH31470.1), and the antibodies to be tested (the humanized antibodies), negative control antibody (hIgG1), and positive control antibodies Ponsegromab and AV380-hIgG1 were added to each well of the coated plate.

[2] = molecular target: T1, GDF15-HIS (ACROBiosystems, CAT #: …); test: ELISA, GDF15-HIS coated
Method: The experiment was performed as detailed in Example 2, except that the coating protein was GDF15-HIS (ACROBiosystems, CAT #: GD5-H5149), and the antibodies to be tested (the humanized antibodies), negative control antibody (hIgG1), positive control antibodies Ponsegromab (Pfizer; Drug Bank: D11909) and AV380-hlgG1 (the heavy chain and light chain constant regions of AV380-mIgG1 were replaced with the constant regions of human IgG, i.e., SEQ ID NO. 5 and SEQ ID NO. 6) were added to each well of the coated plate.

GDF15-mFC protein [3] = molecular target: T3, GDF15-mFC protein (human; mouse, UniProt Q99988 197-308); test: blocking ELISA as in Example 4, GFRAL-hIgG1 Fc coated (competitor), GDF15-mFC mixed with antibody
T3 construct: extracellular domain;domain: IgG2a-FC; also called GDF15-mFc fusion protein
T3 sequence (looked up): T1 sequence (looked up)
Method: A fusion protein comprising the extracellular region of GFRAL protein (Genbank accession number NM_207410.2) and human IgG1-FC (Genbank accession number CAC20454.1) was diluted to […] with coating solution, followed by adding to ELISA plate at 50 μl/well and incubating at 4° C. overnight. The solution in the wells was discarded and the plate was washed 3 times with washing solution, each time for 3-5 minutes, and dried via tapping. 200 μl of blocking solution was added to each well followed by incubating at 4° C. overnight. The plate was washed 3 times with washing solution, and the coated plate may be stored at −20° C. or 4° C. for future use.
The antibodies to be tested, positive control antibody AV380-mIgG1 and blank control (PBS) were added to the wells. […] At the same time, GDF15-mFC protein (GDF15: Genbank accession number NM_004864.3; mFC: Genbank accession number AAH31470.1) was added at 20 ng/well and mixed with the antibodies to be tested. The wells were incubated at 37° C. for 1 hour, washed, and dried via tapping. Then the enzyme-labeled secondary antibody, horseradish peroxidase-labeled goat anti-mouse IgG (SIGMA, catalog number A9044-2 ml) was added to each well, at a dilution of 1:10000, 50-100 μl/well. The wells were incubated at 37° C. for 2 hours, washed, and dried via tapping. 100 μl of freshly prepared developing solution TMB was added to each well and incubated at 37° C. for 30 minutes. 2 mol/L H₂SO₄ was added to terminate the reaction, and the OD value was obtained on an enzyme-linked immunosorbent reader.
The experiment was performed as detailed in Example 4, except that the antibodies to be tested (the humanized antibodies), negative control antibody (hIgG1), and positive control antibodies Ponsegromab and AV380-hIgG1 were added to each well of the coated plate.

GDF15-mFC protein [4] = molecular target: T3, GDF15-mFC protein; test: competitive ELISA, GFRAL-HIS coated (competitor), GDF15-mFc 0.3 µg/ml pre-incubated with antibody
Method: GFRAL-HIS protein (ACROBiosystems, GFA-H52H3) was dissolved in PBS at a concentration of […] and was used to coat ELISA 96-well plate one day before blocking the plate with 2% BSA in PBS. 53E5 (hz), and control antibodies Ponsegromab and AV380-hIgG1 were 3.16-fold diluted for 10 gradients with a starting concentration of 20 μg/ml. At the same time, GDF15-mFc protein was added at a final concentration of 0.3 μg/ml. After incubation at room temperature for 1 hour, the mixtures were added to 96-well plate coated with GFRAL-HIS. After incubated at room temperature for 1 hour, the plate was washed and then HRP-anti-mouse IgG was added to the plate. After incubation at room temperature for 1 hour, the HRP enzyme activity (OD450) was detected. The HRP enzyme activity represents the relative amount of GDF15-mFc protein bound to GFRAL. The OD450 values and antibody concentrations were plotted. The dose-effect curve was fitted using the log (agonist) vs. response-variable slope (four-parameter) Logistic model to calculate IC50.

[5] = molecular target: T1, GDF15-HIS (ACROBiosystems, CAT #: …); test: BLI (ForteBio Octet), antibody immobilised, GDF15 200-6.25 nM
[6] = molecular target: T1, GDF15-HIS (ACROBiosystems, CAT #: …); test: ELISA in stability test, antibody after 40 °C for 2 weeks; coated antigen not named
Method: (§1) An appropriate amount of each antibody was taken and adjusted to 10 mg/mL, and was placed at 40° C. for 1 and 2 weeks. Protein aggregation was detected using SEC-HPLC, and protein binding activity change was detected by ELISA.

[7] = molecular target: T1, GDF15-HIS (ACROBiosystems, CAT #: …); test: ELISA in stability test, antibody after pH 3.6 for 2-4 h; coated antigen not named
Method: An appropriate amount of each antibody was taken and adjusted to 5 mg/mL in storage buffer adjusted to pH 3.6 using an ultrafiltration tube. The antibodies were placed at room temperature for 2-4 hours, then protein aggregation was detected using SEC-HPLC, and protein binding activity change was detected by ELISA.

[8] = molecular target: T1, GDF15-HIS (ACROBiosystems, CAT #: …); test: ELISA on human GDF15, antibody after 2 weeks at 37 °C in plasma
Method: (§2) […] of the antibodies to be tested (final concentration 1 mg/ml) were added to 200 μl of plasma and PBS, respectively, tightly sealed and placed at 37° C. for 2 weeks. The change of protein binding activity was detected by ELISA.

[9] = molecular target: T1, GDF15-HIS (ACROBiosystems, CAT #: …); test: ELISA in stability test, antibody after 40 °C for 1 week; coated antigen not named
Method: as §1

[10] = molecular target: T1, GDF15-HIS (ACROBiosystems, CAT #: …); test: ELISA on human GDF15, antibody after 2 weeks at 37 °C in PBS
Method: as §2

[11] = molecular target: T1, GDF15-HIS (ACROBiosystems, CAT #: …); test: ELISA in stability test, antibody after 5 freeze-thaw cycles; coated antigen not named
Method: An appropriate amount of each antibody was taken and adjusted to 10 mg/mL, followed by freezing at −80° C. for 10 min, and placing in an ice-water mixture to slowly thaw. The above procedure was repeated 5 times. Protein aggregation was detected using SEC-HPLC, and protein binding activity change was detected by ELISA.

[12] = molecular target: T1, GDF15-HIS (ACROBiosystems, CAT #: …); test: ELISA in stability test, antibody before treatment; coated antigen not named

Bottom (luciferase activity fold, fitted curve), HEK293 SRE-LUC2-cRET-GFRAL reporter cells [1]: 1.03
IC50, luciferase in HEK293 SRE-LUC2-cRET-GFRAL reporter cells stimulated with GDF15-His 5 ng/ml [1]: 0.0447 µg/mL
EC50 (cynoGDF15-mFC): 0.0741 µg/mL
OD450.Max (cynoGDF15-mFC): 1 OD450
EC50 [2]: 0.0823 µg/mL
OD450.Max [2]: 1.07 OD450
IC50 (GDF15-mFC protein [3]): 0.231 µg/mL
IC50 (GDF15-mFC protein [4]): 0.231 µg/mL
Kd [5]: 0.0845 nM
koff [5]: 6.91e-05 s⁻¹
kon [5]: 817000 M⁻¹ s⁻¹
B1: AV380-hIgG1 (antibody)
heavy: not shown
light: DIQMTQSPASLSASVGETVTITCRTSENLHNYLAWYQQKQGKSPQLLVYDAKTLADGVPSRFSGSGSGTQYSLKINSLQPEDFGSYYCQHFWSSPYTFGGGTKLEIKRTVAAPSVFIFPPSDEQLKSGTASVVCLLNNFYPREAKVQWKVDNALQSGNSQESVTEQDSKDSTYSLSSTLTLSKADYEKHKVYACEVTHQGLSSPVTKSFNRGEC
notes: also called AV380-hlgG1

EC50 [6]: 0.0296 µg/mL
EC50 (cynoGDF15-mFC): 0.0775 µg/mL
OD450.Max (cynoGDF15-mFC): 1.03 OD450
EC50 [2]: 0.0827 µg/mL
OD450.Max [2]: 1.05 OD450
EC50 [7]: 0.0691 µg/mL
EC50 [8]: 0.0413 µg/mL
EC50 [9]: 0.0643 µg/mL
IC50 (GDF15-mFC protein [3]): 0.283 µg/mL
OD450.Max (GDF15-mFC protein [3]): 1.1 OD450
EC50 [10]: 0.113 µg/mL
EC50 [11]: 0.0673 µg/mL
Kd [5]: 0.266 nM
koff [5]: 0.000257 s⁻¹
kon [5]: 967000 M⁻¹ s⁻¹
EC50 [12]: 0.0412 µg/mL
B2: 53A8(hz) (antibody, human IgG1, kappa, V domains shown)
VH: QVQLQESGPGLVKPSETLSLTCTFSGFSLSTSGMGVGWIRQPPGKGLEWLAHIRWDDVKRYNPALKSRLTISKDTSKSQISLKLSSVTAADTAVYYCAQMAWDWFAYWGQGTTVTVSS
VL: DIQMTQSPSSLSASVGDRVTITCKASQNVDTDVAWYQQKPGQSPKALIYSASYRYSGVPSRFSGSGSGTDFTLTISSLQPEDFATYYCHQYNSYPTFGQGTRLEIKR
notes: also called humanized antibody 53A8

Reference: patent US20250092124A1 (YUNNAN BAIYAO GROUP, published 2025)
